Biological target: T1, Strep-ChlN from Leptolyngbya boryana, expressed in E. coli (Leptolyngbya boryana, UniProt Q04607 1-467)
T1 construct: ChlN, subunit of DPOR (NB protein), Leptolyngbya boryana; Co-expressed with each ChlB variant; To my knowledge pASK-IBA5plus adds an N-terminal Strep-tag II; source: E. coli (chlN-chlB fragments in pASK-IBA5plus), in soluble fraction
Experiment: pull-down; ChlB variants co-expressed with Strep-ChlN in E. coli; soluble fractions on a Strep-Tactin column in an anaerobic chamber; affinity-purified proteins on SDS-PAGE stained with Coomassie Brilliant Blue, yields quantitated
Conditions: partners not purified

T1 sequence (Q04607 whole entry, the tested form may be a part): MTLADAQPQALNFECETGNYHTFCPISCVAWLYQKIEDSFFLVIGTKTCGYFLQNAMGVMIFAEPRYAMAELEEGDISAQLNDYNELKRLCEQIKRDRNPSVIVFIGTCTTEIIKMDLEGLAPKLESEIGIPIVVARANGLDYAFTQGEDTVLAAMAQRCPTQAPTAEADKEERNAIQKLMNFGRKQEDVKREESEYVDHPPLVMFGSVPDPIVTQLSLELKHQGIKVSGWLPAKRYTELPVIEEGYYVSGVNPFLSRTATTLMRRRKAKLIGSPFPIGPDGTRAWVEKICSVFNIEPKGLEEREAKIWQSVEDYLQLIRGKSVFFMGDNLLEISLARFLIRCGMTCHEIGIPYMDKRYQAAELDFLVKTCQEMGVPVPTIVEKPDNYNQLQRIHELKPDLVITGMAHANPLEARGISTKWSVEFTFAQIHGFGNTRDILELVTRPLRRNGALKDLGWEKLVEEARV

B1: wild-type ChlB from Leptolyngbya boryana, expressed in E. coli (natural protein, UniProt P95463 1-508, looked up)
chain: MKLAYWMYAGPAHIGTLRIASSFKNVHAIMHAPLGDDYFNVMRSMLERERDYTPVTTSVVDRHVLARGSQEKVVDNITRKDAEEHPDLIVLTPTCTSSILQEDLQNFVERAQLEAKGDVMLADVNHYRVNELQAADRTLQQIVQFYIAKARKQGNLVTEKTEKPSVNIFGMTTLGFHNNHDATELKKLMSDLGIEVNAIVPAGASVHELKSLPRAWFNLVPYRETGLLAAEFLQQEFNMPYVDITPIGIVETARCIRKIQQVINAQGANVDYEPFIDQQTRFVSQAAWFSRSIDCQNLTGKKAVVFGDNTHAAALTKILAREMGIHVLLAGTYCKYDEAWFREQVSEYCDDVLVSDDNGQIADAIARLEPAAIFGTQMERHVGKRLDIPCGVIAAPIHIQNFPVGYKPFVGYEGSNQIVDLIYNSFTLGMEDHLLEIFGGHDTKEVITKSVSADSDLNWSKDGLAELNRIPGFVRGKVKRNTEKFARDRNITQITAEVLYAAKEAVGA
notes: ChlB, subunit of DPOR (NB protein), Leptolyngbya boryana; also called WT ChlB; WT control; source: E. coli (pHANB2), in soluble fraction
  stoichiometry N: ~1
